This assay addresses Human recombinant voltage-dependent anion channel (human, UniProt P21796 1-283). Kind of assay: radioligand binding.

Chain of Human recombinant voltage-dependent anion channel (P21796 whole entry): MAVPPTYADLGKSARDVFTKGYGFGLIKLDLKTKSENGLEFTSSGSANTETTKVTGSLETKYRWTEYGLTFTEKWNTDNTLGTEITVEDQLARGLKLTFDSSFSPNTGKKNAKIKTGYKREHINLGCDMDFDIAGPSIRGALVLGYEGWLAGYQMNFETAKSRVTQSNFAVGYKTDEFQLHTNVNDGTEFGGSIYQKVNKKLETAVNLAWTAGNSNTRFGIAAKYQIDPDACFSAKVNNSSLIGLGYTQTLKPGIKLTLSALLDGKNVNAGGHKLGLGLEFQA

For MIAAQLLAYYFTELKDDQVKKC [HK-I peptide Met1-Lys21 (P2)], the binding result is “binds”.

Values taken from paper PMC2943043 (Journal of neuroimmunology, 2010).
